# Experimental data reported in the DeepSol protein solubility set.
# Experiment: soluble on expression in E. coli; label from the status in PepcDB or PDB records
row,Sequence,soluble on expression in E. coli
1,MVWSATSRTKYSIKKSFFGCSMIELSNVNLHYPVPGHFSHSLQTTISSKIGGVLGSSSAKDKEMKYVHALRDINLKLEDSSRLGIIGHNGAGKTTLLRLLSQVYPPTSGKVTIEGKISALTDFTLGMDPNATGLKNIEFRLVFMGCTFKEAQQAVEEIVAFSELGEFINLPVRTYSTGMFLRLAFAISTHFTPDILILDEVIGAGDETFREKALSRLESLIKKSRMVVLSSHDLNAIKQYCDQAIVMEKGEIVFNGTPQSCIDYYLNSVKK,not soluble
2,MNRSNAQTERGRRWYVGDRLHVDVRGLPCPEPLVTVLRLIDGSEVGDGLTALVSQEPLLLYPELDARGCRYRMVTPAGDTLLRDGEVVLEIERSK,not soluble
3,MTRNAPPGQESTDLAWLVTPAKDLVENFSIDVLKALAGYLEVIRQESEDTDNQVDAATTYRLFDFQRACRIIQGSCAVYGRKVDHVYELTISVVDLVENKGQDDGNTGSRRGAGRRKNFNLGSTNYDLADIDSLKQEALANFEKTVKEEKKSIDAVRMVENAEVIESQYERKSCLVAKPTQFMFKLNYGQLNRTDEQILNAKSRPDVIGKVKDFEIKKSKVKHDQQILYSHDCYRGNLDQFTLPGARWMPDNKELAANFGVADLEVELDLEQEHEKISAYGPFKDPLSGREVVPPPRWFIEQEAVRQNQEIQSRATSRAITIAAKTLRDSQGFGSQPTRLSQPFVERHRQSNHLNDFLSFVEGRVNKNRPSTHLTTGLVDMFVDNFGSVMQNDEPNTSRRPDENYAPMDFDDDFGGGGDDDDDDYIRNLSRRDEKRAPAPWDELDKNHIIWYTGDENLPVVSKPVKKITKFQPKPAEMLARKQRREEKINKSRRDEFMETHDYLQDYYYWRSAARINPIKDWKIESLRTAILAEKKRRIKEKTAKIREARIQNMQRKRTARVIPVEQFEPVTEDIPTSNRRTLGAEYDDVVDEDLAAEVELSMFGGGFDDDEEDVRPRGERPPMAPNNLEFDALQTDFDIPPAEYVPLRFEDIDDAELNSVINLPGNLLIDKALPLLKKFAENRTDREQMAYEMAKAYEDVDVAVSTLQEHVDKWHSRMEPILEEGETRKEYDVHAVGRAVIGQYDIEGGTKRLLDLVMDRPWYEISRYFLSCLFMCNVGNVMVSEDMELPLEERINSMKITLLKRDMHCEMFKEAGALDA,not soluble
4,MECLKAEFFSPIALFKTPFSIKGIETYPLPPYSTVIGLLYTASGKKWKGERFNISVQGDYEAIFRDYVRFRKYNKKDKKLETLPLEVPLFYNFRLTVHILGDENLLKEFEKALKFPYVFPYLSGGEYPVKITKVKMVACRKEYFDTFNIPKNAYIPENIFTEEFRVSLEGHGVYYRVPSFLISQKPRQHEWVGVYYVQKGTKVSEMELLVDEEGEPVWV,soluble
5,MGSSHHHHHHSSGLVPRGSHMKPVLTVYTYDSFAADWGPGPVVKKAFEADCNCELKLVALEDGVSLLNRLRMEGKNSKADVVLGLDNNLLDAASKTGLFAKSGVAADAVNVPGGWNNDTFVPFDYGYFAFVYDKNKLKNPPQSLKELVESDQNWRVIYQDPRTSTPGLGLLLWMQKVYGDDAPQAWQKLAKKTVTVTKGWSEAYGLFLKGESDLVLSYTTSPAYHILEEKKDNYAAANFSEGHYLQVEVAARTAASKQPELAQKFLQFMVSPAFQNAIPTGNWMYPVANVTLPAGFEKLTKPATTLEFTPAEVAAQRQAWISEWQRAVSR,soluble
6,MSLDNINHILSKELGISLKQVTSVIEMLDEGNTVPFIARYRKERTGGLTDEVLRKFNERLTYLRNLESRKEDVLRIIEEQEKLTPELKLKIEKATTLTEIEDIYRPFKAKKRTRATMAVEKGLKPLAELILSGEFNGDIVEEANKYINEEKGVKNEEEALQGAMDIISEIISDNADYRKWIRNFVQKDGIIQVKGSSEEQTPYEMYYDYKEPVRTIPSHRILAINRGEKEKILSVKVTCNDDKIIDYLNKKVLKENKITDKYLEESIKDSFKRLIYPSIEREIRSELTSKGEEGAIDIFKANLKALLMQAPIKGKVVMGFDPGFRTGCKVAILDETGKFVENTTVYPTAPQNRIDETISTLKKLIKKHGVQVISLGNGTASRESEEVIAKMLKEIKDETGKELFYVIVSEAGASVYSASELANKEYPDLDVTVRGAISIGRRLQDPLAELVKIDPKAIGVGQYQHDVTQKKLDESLAGIVEDCVNNVGVDLNIATPSLLSYISGINASIAKNIVDYREENGKFKSRKELLKVKRLGQKAYEQCAGFLRVMESKEALDNTSVHPESYKVAKELIKTLGYTEEDEGHHHHHH,soluble
7,MGHHHHHHSHMAFMVKSMVGGQLKNLTGSLGGGEDKGDGDKSAAEAQGMSREEYEEYQKQLVEEKMERDAQFTQRKAERATLRSHFRDKYRLPKNETDESQIQLAGGDVELPRELAKMIEEDTEEEEDKASVLGQLASLPGLDLSSLKDKAQTTLGDLKQSAEKCHIM,not soluble
8,MAAAAAAKIAPSMLSSDFANLAAEADRMVRLGADWLHMDIMDGHFVPNLTIGAPVIQSLRKHTKAYLDCHLMVTNPSDYVEPLAKAGASGFTFHIEVSRDNWQELIQSIKAKGMRPGVSLRPGTPVEEVFPLVEAENPVELVLVMTVEPGFGGQKFMPEMMEKVRALRKKYPSLDIEVDGGLGPSTIDVAASAGANCIVAGSSIFGAAEPGEVISALRKSVEGSQNKS,soluble
9,MGSDKIHHHHHHMRRNQVAIVGAAETTKLGVIPDMSQIQLHADAALNAIADAGLKLSDIDGIATAVETPQQIAHYLGITPTWVDGTSVGGCSFMLHVRHAAAAIEAGLCKTVLITHAESGKSMIGKLPRSIPADSLQGQFEAPYGIYGPPSQFPIPVLRFMKTHGITHEQIASVAVVQREWAAKNPRAMMKDPITVADVLNSRMIAYPFRLLQCCLVTDGGGALIMTSADRAKDFPHKPVYVLGTGESVETPMVSQMETFNSSRAFKVAGPTAFREAGISHSDVDHLMIYDAFAHLPLFGLGDLGFMPYEETGKFIADGNTRPGGKLPLNTNGGGLSYMHSGMYGMYALQESVRQMRGIAPAQVPNAKISVCHGVGGMFAASGTIIFTNEK,not soluble
10,MKNIFGNKNTKRSKNKDGKALASTASKDVADPPKQGGTKGSKKPKPSRGNDEKGREPETSAQSKKAKKGKPKRDSKAATPALSPGSREMLSDHKKQTVEDDPPLPIATSVAGTVTTTGMPALLPAENATQPLKEVVNSGKKSKGAPNSATATPVSHKSTITEGADKWVGEDVAKNWMDSIDLAEVKKEFEKLQSMKVDVEKECKTWKANSKYNQSEDFPALDSNLLKVEKDYVNISRVEIPLGRNIYIGQVPVKDTEETFWKAVFDKRIVSIDVIVGDEPIEFFPKKAEDYKNYGQMWINNRKVEYVSDDVFRFSIEVLPHGCSNSIICNVTVISNWKVDSVPVKQAIAIKEAFGLNSYLLKAPADDNAMINSQHGAGRAGYFLALAVAVHTIDTKVAEPCIVDIVKSIRSQRPRAVDSFCQYCSLYISLLYFIKKKVTKPAEGDKKSTPTNKYLHKKSVEMTKQFTNILLEANQPSVMGPQ,not soluble
11,MSLELKVHETILEVNLGAMVANLNHYRSMLKPETKMVCMVKASAYGAGSYEIAKTLQEHHADYLAVAVADEGSDLRKAGITASIIIMDPELTAFKTMFDYKLEPEVYNFHLLDALIKAAEKEGITNFPIHVKLDTGMHRLGFEEKDIPQLIRRLKNQNALIPRSVFSHFVGSDSAQFDAFTRQQIERYEKMSKELQDAFPHKILRHICNTAGIERFPGAQFDMVRLGIGLYGISPIDNSIINNVSTLKTTILQIRDVAEEDTVGYSRKGHLIRPSRIAAIPIGYADGLNRHLGCGHGYCLVNGKKAPYVGNICMDVCMIDVTDIDCREGDQAIIFGDELPITALSDALETIPYEVLTGISTRVKRVYYQDEGHHHHHH,soluble
12,MHRPITAGHTTSRLILDQLKQISRTPSESSVQSALSQQASMSSPVLERSKSAPALLTAAQRTMLAQVGACNSHLTSDENMAINELRLHKPRLPKDTWFFTDPNKDPDDVVTYTLGKQLQAEGFVHITDVVATLGDAEVRSQRAEMAKGVFNKLGLHDVHVSRGRDYAMNSLQSKEHAKFLLEGHALRAGPGEIHRDSLQDMSRRLARAPHGVGIVVIAGMSDINALITTCPDMVRERVDDITIMGGVEPLKDADGFVQPDARAYNNATDMDAARSLYRKAQELGIPLRIVTKEAAYKTAVSPSFYEGIAGSGHPVGHYLRDVQKSALKGLWEGIQAGLLPGLDDSWFFRTFMPNAQIEAAQLDKNKESSFEDIWPKVTKLNLYDPLTLLASVPGAAKLLFKPKAIHTEGFGVVEQVGPDDVTHPEKAKLLMSALAKSALVQSTVAPD,not soluble
